Numbered stars: 1 amine (or outer) side, 2 acyl side, 3 side chain; on linkers, the order of the positions; unused ones are H or OH. Bridge positions count the residues as written; N and C are the ends. Square brackets hold non-standard residues; d marks the D form. Side chains are listed from the residue outwards. Ends that are not written are not given here. * marks the point of attachment. C18 diacid = O=C(O)CCCCCCCCCCCCCCCCC(=O)*; γGlu = O=C(O)[C@H](CCC(=O)[*:2])N[*:1]; αMeF = C[C@](N)(Cc1ccccc1)C(=O)O; Aib = CC(C)(N)C(=O)O

Sequences and labels used below:
B1: Peptide 149 (SEQ ID NO: 149) (peptide)
peptide: K([γGlu-C18 diacid])CNTATCATQRLANFL[Aib]HSSNNFGPILPPTNVGSNTY-NH2
modifications: disulfide 2-7; N-terminus assumed
SMILES: CC[C@H](C)[C@H](NC(=O)[C@@H]1CCCN1C(=O)CNC(=O)[C@H](Cc1ccccc1)NC(=O)[C@H](CC(N)=O)NC(=O)[C@H](CC(N)=O)NC(=O)[C@H](CO)NC(=O)[C@H](CO)NC(=O)[C@H](Cc1c[nH]cn1)NC(=O)C(C)(C)NC(=O)[C@H](CC(C)C)NC(=O)[C@H](Cc1ccccc1)NC(=O)[C@H](CC(N)=O)NC(=O)[C@H](C)NC(=O)[C@H](CC(C)C)NC(=O)[C@H](CCCNC(=N)N)NC(=O)[C@H](CCC(N)=O)NC(=O)[C@@H](NC(=O)[C@H](C)NC(=O)[C@@H]1CSSC[C@H](NC(=O)[C@@H](N)CCCCNC(=O)CC[C@H](NC(=O)CCCCCCCCCCCCCCCCC(=O)O)C(=O)O)C(=O)N[C@@H](CC(N)=O)C(=O)N[C@@H]([C@@H](C)O)C(=O)N[C@@H](C)C(=O)N[C@@H]([C@@H](C)O)C(=O)N1)[C@@H](C)O)C(=O)N[C@@H](CC(C)C)C(=O)N1CCC[C@H]1C(=O)N1CCC[C@H]1C(=O)N[C@H](C(=O)N[C@@H](CC(N)=O)C(=O)N[C@H](C(=O)NCC(=O)N[C@@H](CO)C(=O)N[C@@H](CC(N)=O)C(=O)N[C@H](C(=O)N[C@@H](Cc1ccc(O)cc1)C(N)=O)[C@@H](C)O)C(C)C)[C@@H](C)O
B2: Peptide 24 (SEQ ID NO: 24) (peptide)
peptide: K([γGlu-γGlu-C18 diacid])CNTATCATQRLANFLVHSSNN[αMeF]GPILPPTRVGSNTY-NH2
modifications: disulfide 2-7; N-terminus assumed
SMILES: CC[C@H](C)[C@H](NC(=O)[C@@H]1CCCN1C(=O)CNC(=O)[C@](C)(Cc1ccccc1)NC(=O)[C@H](CC(N)=O)NC(=O)[C@H](CC(N)=O)NC(=O)[C@H](CO)NC(=O)[C@H](CO)NC(=O)[C@H](Cc1c[nH]cn1)NC(=O)[C@@H](NC(=O)[C@H](CC(C)C)NC(=O)[C@H](Cc1ccccc1)NC(=O)[C@H](CC(N)=O)NC(=O)[C@H](C)NC(=O)[C@H](CC(C)C)NC(=O)[C@H](CCCNC(=N)N)NC(=O)[C@H](CCC(N)=O)NC(=O)[C@@H](NC(=O)[C@H](C)NC(=O)[C@@H]1CSSC[C@H](NC(=O)[C@@H](N)CCCCNC(=O)CC[C@H](NC(=O)CC[C@H](NC(=O)CCCCCCCCCCCCCCCCC(=O)O)C(=O)O)C(=O)O)C(=O)N[C@@H](CC(N)=O)C(=O)N[C@@H]([C@@H](C)O)C(=O)N[C@@H](C)C(=O)N[C@@H]([C@@H](C)O)C(=O)N1)[C@@H](C)O)C(C)C)C(=O)N[C@@H](CC(C)C)C(=O)N1CCC[C@H]1C(=O)N1CCC[C@H]1C(=O)N[C@H](C(=O)N[C@@H](CCCNC(=N)N)C(=O)N[C@H](C(=O)NCC(=O)N[C@@H](CO)C(=O)N[C@@H](CC(N)=O)C(=O)N[C@H](C(=O)N[C@@H](Cc1ccc(O)cc1)C(N)=O)[C@@H](C)O)C(C)C)[C@@H](C)O
B3: Peptide 140 (SEQ ID NO: 140) (peptide)
peptide: K([γGlu-C18 diacid])KCNTATCATQRLANFL[Aib]HSSNNFGPILPPTEVGSNTY-NH2
modifications: disulfide 3-8; N-terminus assumed
SMILES: CC[C@H](C)[C@H](NC(=O)[C@@H]1CCCN1C(=O)CNC(=O)[C@H](Cc1ccccc1)NC(=O)[C@H](CC(N)=O)NC(=O)[C@H](CC(N)=O)NC(=O)[C@H](CO)NC(=O)[C@H](CO)NC(=O)[C@H](Cc1c[nH]cn1)NC(=O)C(C)(C)NC(=O)[C@H](CC(C)C)NC(=O)[C@H](Cc1ccccc1)NC(=O)[C@H](CC(N)=O)NC(=O)[C@H](C)NC(=O)[C@H](CC(C)C)NC(=O)[C@H](CCCNC(=N)N)NC(=O)[C@H](CCC(N)=O)NC(=O)[C@@H](NC(=O)[C@H](C)NC(=O)[C@@H]1CSSC[C@H](NC(=O)[C@H](CCCCN)NC(=O)[C@@H](N)CCCCNC(=O)CC[C@H](NC(=O)CCCCCCCCCCCCCCCCC(=O)O)C(=O)O)C(=O)N[C@@H](CC(N)=O)C(=O)N[C@@H]([C@@H](C)O)C(=O)N[C@@H](C)C(=O)N[C@@H]([C@@H](C)O)C(=O)N1)[C@@H](C)O)C(=O)N[C@@H](CC(C)C)C(=O)N1CCC[C@H]1C(=O)N1CCC[C@H]1C(=O)N[C@H](C(=O)N[C@@H](CCC(=O)O)C(=O)N[C@H](C(=O)NCC(=O)N[C@@H](CO)C(=O)N[C@@H](CC(N)=O)C(=O)N[C@H](C(=O)N[C@@H](Cc1ccc(O)cc1)C(N)=O)[C@@H](C)O)C(C)C)[C@@H](C)O
B4: Peptide 20 (SEQ ID NO: 20) (peptide)
peptide: K([γGlu-γGlu-C18 diacid])CNTATCATQRLANFLRHSSNN[αMeF]GPILPPTNVGSNTY-NH2
modifications: disulfide 2-7; N-terminus assumed
SMILES: CC[C@H](C)[C@H](NC(=O)[C@@H]1CCCN1C(=O)CNC(=O)[C@](C)(Cc1ccccc1)NC(=O)[C@H](CC(N)=O)NC(=O)[C@H](CC(N)=O)NC(=O)[C@H](CO)NC(=O)[C@H](CO)NC(=O)[C@H](Cc1c[nH]cn1)NC(=O)[C@H](CCCNC(=N)N)NC(=O)[C@H](CC(C)C)NC(=O)[C@H](Cc1ccccc1)NC(=O)[C@H](CC(N)=O)NC(=O)[C@H](C)NC(=O)[C@H](CC(C)C)NC(=O)[C@H](CCCNC(=N)N)NC(=O)[C@H](CCC(N)=O)NC(=O)[C@@H](NC(=O)[C@H](C)NC(=O)[C@@H]1CSSC[C@H](NC(=O)[C@@H](N)CCCCNC(=O)CC[C@H](NC(=O)CC[C@H](NC(=O)CCCCCCCCCCCCCCCCC(=O)O)C(=O)O)C(=O)O)C(=O)N[C@@H](CC(N)=O)C(=O)N[C@@H]([C@@H](C)O)C(=O)N[C@@H](C)C(=O)N[C@@H]([C@@H](C)O)C(=O)N1)[C@@H](C)O)C(=O)N[C@@H](CC(C)C)C(=O)N1CCC[C@H]1C(=O)N1CCC[C@H]1C(=O)N[C@H](C(=O)N[C@@H](CC(N)=O)C(=O)N[C@H](C(=O)NCC(=O)N[C@@H](CO)C(=O)N[C@@H](CC(N)=O)C(=O)N[C@H](C(=O)N[C@@H](Cc1ccc(O)cc1)C(N)=O)[C@@H](C)O)C(C)C)[C@@H](C)O

The target in one test is T1, rat calcitonin receptor (rat, UniProt P32214 25-516).
T1 sequence (looked up): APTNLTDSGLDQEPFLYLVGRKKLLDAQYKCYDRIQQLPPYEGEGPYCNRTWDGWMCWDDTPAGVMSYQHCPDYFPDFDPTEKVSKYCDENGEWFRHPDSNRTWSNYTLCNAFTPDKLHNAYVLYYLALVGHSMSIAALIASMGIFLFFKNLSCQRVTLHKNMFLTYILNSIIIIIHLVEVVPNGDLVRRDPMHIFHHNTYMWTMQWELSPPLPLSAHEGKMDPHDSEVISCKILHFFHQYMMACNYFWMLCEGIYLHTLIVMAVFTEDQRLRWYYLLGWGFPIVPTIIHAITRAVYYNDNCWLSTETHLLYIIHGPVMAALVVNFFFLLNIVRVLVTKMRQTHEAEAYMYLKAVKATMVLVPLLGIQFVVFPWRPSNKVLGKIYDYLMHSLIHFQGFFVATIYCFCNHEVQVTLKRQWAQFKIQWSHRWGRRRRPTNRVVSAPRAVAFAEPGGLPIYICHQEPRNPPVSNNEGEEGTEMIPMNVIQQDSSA
Description: cell-based or functional assay.
As to K([γGlu-γGlu-C18 diacid])CNTATCATQRLANFLRHSSNN[αMeF]GPILPPTEVGSNTY-NH2 (disulfide 2-7) [Peptide 18 (SEQ ID NO: 18)], the “EC50 (cAMP production)” value amounted to 3090 pM.

With B1, the “EC50 (cAMP production)” value was 522 pM.

Regarding B2, the “EC50 (cAMP production)” value was determined as 755 pM.

For the molecule B3, the “EC50 (cAMP production)” value amounted to 1220 pM.

As for B4, the “EC50 (cAMP production)” value turned out to be 1850 pM.

In the next test the target is T2, rat amylin receptor (calcitonin receptor co-expressed with receptor activity modifying protein, RAMP3) (rat, UniProt P32214 25-516; Q9JJ73 23-147).
T2 sequence (looked up) 1: T1 sequence (looked up)
T2 sequence (looked up) 2: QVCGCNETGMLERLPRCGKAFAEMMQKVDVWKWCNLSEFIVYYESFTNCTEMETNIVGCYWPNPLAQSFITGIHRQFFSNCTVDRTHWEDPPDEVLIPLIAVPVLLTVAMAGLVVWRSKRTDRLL
Description: cell-based or functional assay.
For the molecule K([γGlu-γGlu-C18 diacid])CNTATCATQRLANFLRHSSNN[αMeF]GPILPPTEVGSNTY-NH2 (disulfide 2-7) [Peptide 18 (SEQ ID NO: 18)], the “EC50 (cAMP production)” value was 16.5 pM.

Take B1: the “EC50 (cAMP production)” value was 5.6 pM.

On to B2, for which the “EC50 (cAMP production)” value came out at 17.7 pM.

Take B3: the “EC50 (cAMP production)” value was found to be 19.5 pM.

For the molecule B4, the “EC50 (cAMP production)” value came to 10.4 pM.

In another test the target is T3, human calcitonin receptor (human, UniProt P30988 25-474).
T3 sequence (looked up): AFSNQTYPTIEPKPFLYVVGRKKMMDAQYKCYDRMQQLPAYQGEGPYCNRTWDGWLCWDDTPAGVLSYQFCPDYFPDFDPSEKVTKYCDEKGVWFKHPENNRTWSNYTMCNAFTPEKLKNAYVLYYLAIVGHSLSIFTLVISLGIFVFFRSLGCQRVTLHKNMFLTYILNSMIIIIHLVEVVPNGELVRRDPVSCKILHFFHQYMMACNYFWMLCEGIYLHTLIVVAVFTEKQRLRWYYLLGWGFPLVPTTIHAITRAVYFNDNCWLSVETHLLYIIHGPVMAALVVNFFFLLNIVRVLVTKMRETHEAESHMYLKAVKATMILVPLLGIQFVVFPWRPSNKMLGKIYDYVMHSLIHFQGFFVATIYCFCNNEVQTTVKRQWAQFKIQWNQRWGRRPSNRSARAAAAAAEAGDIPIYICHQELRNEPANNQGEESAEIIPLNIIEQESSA
Description: cell-based or functional assay.
Regarding K([γGlu-γGlu-C18 diacid])CNTATCATQRLANFLRHSSNN[αMeF]GPILPPTEVGSNTY-NH2 (disulfide 2-7) [Peptide 18 (SEQ ID NO: 18)], the “EC50 (cAMP production)” value worked out at 4690 pM.

Regarding B1, the “EC50 (cAMP production)” value came out at 1200 pM.

With B2, the “EC50 (cAMP production)” value came to 1860 pM.

Turning to B3, the “EC50 (cAMP production)” value came out at 6050 pM.

For B4, the “EC50 (cAMP production)” value is 4590 pM.

A further test has as its target T4, human amylin receptor (calcitonin receptor co-expressed with receptor activity modifying protein, RAMP3) (human, UniProt P30988 25-474; O60896 24-148).
T4 sequence (looked up) 1: T3 sequence (looked up)
T4 sequence (looked up) 2: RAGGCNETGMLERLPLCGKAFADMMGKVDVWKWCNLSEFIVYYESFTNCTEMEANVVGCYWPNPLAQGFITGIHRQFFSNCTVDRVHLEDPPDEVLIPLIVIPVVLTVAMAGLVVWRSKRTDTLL
Kind of test: cell-based or functional assay.
Regarding K([γGlu-γGlu-C18 diacid])CNTATCATQRLANFLRHSSNN[αMeF]GPILPPTEVGSNTY-NH2 (disulfide 2-7) [Peptide 18 (SEQ ID NO: 18)], the “EC50 (cAMP production)” value was determined as 319 pM and the “Ratio (EC50 hCTR / EC50 hAMYR3)” value was determined as 15.

Take B1: the “EC50 (cAMP production)” value was determined as 130 pM and the “Ratio (EC50 hCTR / EC50 hAMYR3)” value was determined as 9.2.

In the case of B2, the “EC50 (cAMP production)” value is 127 pM and the “Ratio (EC50 hCTR / EC50 hAMYR3)” value turned out to be 15.

As to B3, the “EC50 (cAMP production)” value amounted to 656 pM and the “Ratio (EC50 hCTR / EC50 hAMYR3)” value is 9.2.

Take B4: the “EC50 (cAMP production)” value came out at 174 pM and the “Ratio (EC50 hCTR / EC50 hAMYR3)” value amounted to 26.

Source of the values: patent US20220204580A1 (AstraZeneca / MedImmune, published 2022).
